# In paper PMC6135763 (Nature Communications, 2018):
# T1: Importin α3ΔIBB (residues 64–521) (human, UniProt O00629 64-521)
# T1 construct: also called Impα3; KPNA4
# T1 sequence (looked up): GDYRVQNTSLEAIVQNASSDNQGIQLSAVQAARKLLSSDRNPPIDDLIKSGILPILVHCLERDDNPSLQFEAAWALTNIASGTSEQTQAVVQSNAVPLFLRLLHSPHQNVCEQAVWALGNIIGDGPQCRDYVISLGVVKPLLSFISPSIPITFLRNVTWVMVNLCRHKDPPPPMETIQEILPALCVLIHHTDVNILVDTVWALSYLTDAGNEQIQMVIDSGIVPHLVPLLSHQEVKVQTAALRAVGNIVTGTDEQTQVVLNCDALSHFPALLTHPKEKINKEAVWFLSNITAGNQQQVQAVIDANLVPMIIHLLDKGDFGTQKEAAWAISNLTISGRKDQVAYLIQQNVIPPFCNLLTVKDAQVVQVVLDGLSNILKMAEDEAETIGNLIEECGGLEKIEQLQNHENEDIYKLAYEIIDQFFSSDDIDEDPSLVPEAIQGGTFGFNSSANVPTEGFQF
# B1: GST-NiV W (C-terminal NLS domain of Nipah virus W protein, residues 411–450, GST fusion) (domain or fragment)
# chain: RNIHLLGRKTCLGRRVVQPGMFEDHPPTKKARVSMRRMSN
# B2: GST-HeV W (C-terminal NLS domain of Hendra virus W protein, residues 409–448, GST fusion) (domain or fragment)
# chain: RSLNMLGRKTCLGRRVVQPGMFADYPPTKKARVLLRRMSN
# Assays:
# [1] = biological target: Importin α7ΔIBB (residues 73–536) (human, UniProt O60684 73-536); assay: ELISA; conditions: both partners purified
# [2] = biological target: T1, Importin α3ΔIBB (residues 64–521); assay: ELISA; conditions: both partners purified
# Chain of Importin α7ΔIBB (residues 73–536) (O60684 73-536, stated change not applied): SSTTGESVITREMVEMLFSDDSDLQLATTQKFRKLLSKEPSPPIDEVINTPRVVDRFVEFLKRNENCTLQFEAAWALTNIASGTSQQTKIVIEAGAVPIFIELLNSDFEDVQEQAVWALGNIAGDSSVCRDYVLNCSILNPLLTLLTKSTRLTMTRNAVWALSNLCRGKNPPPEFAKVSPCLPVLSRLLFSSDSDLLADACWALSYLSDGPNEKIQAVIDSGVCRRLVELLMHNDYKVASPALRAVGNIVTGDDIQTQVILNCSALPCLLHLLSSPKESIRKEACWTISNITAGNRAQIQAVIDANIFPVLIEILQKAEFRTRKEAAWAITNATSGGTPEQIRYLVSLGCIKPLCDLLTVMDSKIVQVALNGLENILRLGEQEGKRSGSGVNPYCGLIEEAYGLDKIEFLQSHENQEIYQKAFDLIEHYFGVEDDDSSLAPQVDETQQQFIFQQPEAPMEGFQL
Binder,Kd [1] [nM],Kd [2] [nM]
B1,1100,14.4
B2,1500,19.9
